According to patent publication US20210228853A1, “DRUG DELIVERY METHODS TARGETING THE LYMPHATIC SYSTEM” (Sorrento Therapeutics, Inc., priority 2018, published 2021):

Columns and labels:
[1] = test system: Collagen Induced Arthritic (CIA) Model for Rheumatoid Arthritis (RA); assay: Lymphatic pumping rate by NIRF imaging in CIA rats; assay type: in vivo, rat; details: for lymphatic pumping in the hind limbs vs untreated animals: CIA rat, days 13 and 18 post CIA induction
Method: Specifically, type II porcine collagen (Chondrex, Inc. catalog #20031), solubilized in 0.05 N of acetic acid in sterile water at a concentration of 2 mg/mL was emulsified with an equal volume of incomplete Freud's adjuvant (Chondrex, Inc. catalog #7002) using homogenization at 35,000 rpm (Omni International homogenizer TH, homogenizer probe #32750); 100 μL emulsion was injected subcutaneously at the base of the tails on both sides for initial administration (day 0, 200 μL of emulsion total), and then again, 7 days later, on the right side only, for booster administration (day 7, 100 μL of emulsion total). Hind limb swelling, usually evident by day 14, was assessed by caliper measurements of the rear ankle cross (side-to-side) and oblique (front-to-back) dimensions. The two measurements for each hind limb were multiplied together for assessment of swelling, and the percent change from baseline was computed. These measurements and lymphatic imaging were performed on days 0, 7, 11, 13, and 18, in the early stages of CIA before the onset of joint destruction. Four groups of animals were studied: (1) untreated (n=20), (2) treated with etanercept given by SC administration (n=20, 1 mg in 100 μL), (3) treated with etanercept given by ID administration (n=20, two administrations of 0.5 mg in 50 μL), and (4) treated with etanercept given via Sofusa™ (n=18, one administration of 1 mg in 100 μL delivered). Rats were anesthetized with isoflurane and shaved before imaging; 10 μL of 625 μM ICG was then injected ID with a 31-gauge needle/syringe (BD #328438, Fisher Scientific) at the base of the tail and on the dorsal side of the paw on both the right and left sides of the rats to perform NIRF imaging of the lymphatics. […] The integration time for fluorescence images was 200 ms; 300-900 images were collected per lateral side per rat for lymph propulsive frequency measurements. […]

[2] = Etanercept pharmacokinetics in rat serum by route of administration (ELISA); assay type: in vivo, Sprague Dawley rats
Method: Methods and procedures for some of these experiments have been adapted from Aldrich, et al., Arthritis Res. Ther., (2017), 19:116 (DOI 10.1186/s13075-017-1323-z; Open Access) which is incorporated by reference herein in its entirety for all purposes.
In order to characterize differences in etanercept delivery by the different routes of administration, normal rats were used to determine the PK profiles following a single dose of 1 mg etanercept in 100 μL delivered via Sofusa™ (n=6), conventional IV (in the tail vein, n=6), SC (dorsolateral injection at the same site as the Sofusa™ application, n=4), or ID injections (symmetrical dorsolateral injections 2×50 uL for a total dose of 1 mg etanercept, n=6). Other than the Sofusa™ delivery, all administration was conducted using a 31-gauge needle. At 2, 4, 8, 12, 24, and 36 h after administration, animals were anesthetized under isoflurane, and 200 μL of blood was drawn from the jugular vein. The etanercept concentration in serum was quantified using the Etanercept ELISA Kit (ABIN: 1540251) (Matriks Biotechnology Co., LTD., Ankara, Turkey). Optical density was measured at 450 nm using Thermo Scientific Multiskan EX (Thermo Fisher Scientific, Waltham, Mass., USA).

[3] = test system: Collagen Induced Arthritic (CIA) Model for Rheumatoid Arthritis (RA); assay: Collagen induced arthritic (CIA) model for rheumatoid arthritis, hind limb/joint swelling; assay type: in vivo, rat
Method: Specifically, type II porcine collagen (Chondrex, Inc. catalog #20031), solubilized in 0.05 N of acetic acid in sterile water at a concentration of 2 mg/mL was emulsified with an equal volume of incomplete Freud's adjuvant (Chondrex, Inc. catalog #7002) using homogenization at 35,000 rpm (Omni International homogenizer TH, homogenizer probe #32750); 100 μL emulsion was injected subcutaneously at the base of the tails on both sides for initial administration (day 0, 200 μL of emulsion total), and then again, 7 days later, on the right side only, for booster administration (day 7, 100 μL of emulsion total). Hind limb swelling, usually evident by day 14, was assessed by caliper measurements of the rear ankle cross (side-to-side) and oblique (front-to-back) dimensions. The two measurements for each hind limb were multiplied together for assessment of swelling, and the percent change from baseline was computed. These measurements and lymphatic imaging were performed on days 0, 7, 11, 13, and 18, in the early stages of CIA before the onset of joint destruction. Four groups of animals were studied: (1) untreated (n=20), (2) treated with etanercept given by SC administration (n=20, 1 mg in 100 μL), (3) treated with etanercept given by ID administration (n=20, two administrations of 0.5 mg in 50 μL), and (4) treated with etanercept given via Sofusa™ (n=18, one administration of 1 mg in 100 μL delivered).

[4] = Etanercept pharmacokinetics in porcine model by route of administration; assay type: in vivo, Yorkshire pig
[5] = Biodistribution of radiolabeled etanercept to axillary and inguinal lymph nodes; assay type: in vivo; details: rat; Sofusa vs intravenous or subcutaneous; 12 and 36 hours; 1 mg
Method: In order to determine the amount etanercept delivered to the lymph nodes, a radiolabeled etanercept solution was administrated using the Sofusa™ drug delivery platform (1 mg etanercept in 100 μL), IV (1 mg etanercept in the tail vein in 100 μL), SC (1 mg etanercept in the dorsolateral side at the same site as the Sofusa™ application, 100 μL), and ID (1 mg total etanercept in two 50 μL injections). Animals were harvested at 12 and 36 hrs after administration, and the left/right axillary and inguinal lymph nodes were collected, weighed, and counted for radioactivity using a 2480 Wizard2 automatic gamma counter (PerkinElmer, Waltham, Mass., USA). The time-corrected radioactivity was then used to compute the μg/mL of tissue etanercept concentration from the specific radioactivity of the dosing solution with animals that were euthanized at 12 hrs (n=4, Sofusa™; n=6, IV; n=6, ID; and n=6, SC) and at 36 hrs (n=6, Sofusa™; n=6, IV; n=6, ID; and n=6, SC).
In order to validate the amount of etanercept delivered, the radioactivity was measured in the Sofusa™ device and tubing before and after the 1 hr infusion. Measurement was conducted using the dose calibrator. The amount of etanercept delivered as the difference in the time-corrected radioactivity before and after administration was determined.

[6] = Sofusa drug delivery platform vs subcutaneous
[7] = Table 1, IV, 1 mg etanercept single dose
[8] = Table 1, SC, 1 mg etanercept single dose
[9] = Table 2 summary, Sofusa drug delivery platform

Substance: etanercept
- lymphatic pumping rate ([1]; CIA RA rat, Sofusa compared to untreated, ID and SC groups): significantly increased
- lymphatic pumping in the hind limbs vs untreated animals ([1]; SC administration): statistically significant greater lymphatic pumping
- lymphatic pumping in the hind limbs vs untreated animals ([1]; SOFUSA administration): statistically significant greater lymphatic pumping
- AUC48, Sofusa compared to SC [2, 6]: almost double
- Tmax, Sofusa compared to SC [2, 6]: significantly shorter
- AUC0-48 [2, 7]: 2,800 hrs-μg/mL
- BA [2, 7]: 100%
- Cmax [2, 7]: 120 µg/mL
- Tmax [2, 7]: 8 h
- AUC0-48 [2, 8]: 302 hrs-μg/mL
- BA [2, 8]: 10%
- Cmax [2, 8]: 15 µg/mL
- Tmax [2, 8]: 36 h
- AUC0-48 ([2]; Table 1, Sofusa Study 1): 545 hrs-μg/mL
- BA ([2]; Table 1, Sofusa Study 1): 20%
- Cmax ([2]; Table 1, Sofusa Study 1): 25 µg/mL
- Tmax ([2]; Table 1, Sofusa Study 1): 4 h
- AUC0-48 ([2]; Table 1, Sofusa Study 2): 502 hrs-μg/mL
- BA ([2]; Table 1, Sofusa Study 2): 18%
- Cmax ([2]; Table 1, Sofusa Study 2): 22 µg/mL
- Tmax ([2]; Table 1, Sofusa Study 2): 2 h
- AUC0-48 ([2]; Table 1, Sofusa Study 3): 538 hrs-μg/mL
- BA ([2]; Table 1, Sofusa Study 3): 19%
- Cmax ([2]; Table 1, Sofusa Study 3): 20 µg/mL
- Tmax ([2]; Table 1, Sofusa Study 3): 2 h
- AUC0-48 ([2]; Table 2 summary, SC): 492 hrs-μg/mL
- BA ([2]; Table 2 summary, SC): 17%
- Cmax ([2]; Table 2 summary, SC): 15 µg/mL
- Tmax ([2]; Table 2 summary, SC): 36 h
- AUC0-48 [2, 9]: 800 hrs-μg/mL
- BA [2, 9]: 29%
- Cmax [2, 9]: 19 µg/mL
- Tmax [2, 9]: 10 h
- AUC0-36 ([2]; Table 3, Intradermal): 696 µg·h/mL
- BA ([2]; Table 3, Intradermal): 25%
- Cmax ([2]; Table 3, Intradermal): 21 µg/mL
- Tmax ([2]; Table 3, Intradermal): 12 h
- AUC0-36 ([2]; Table 3, Intravenous): 2,815 μg-hour/ml
- BA ([2]; Table 3, Intravenous): 100%
- Cmax ([2]; Table 3, Intravenous): 120 µg/mL
- Tmax ([2]; Table 3, Intravenous): 2 h
- AUC0-36 ([2]; Table 3, Sofusa): 1010 µg·h/mL
- BA ([2]; Table 3, Sofusa): 36%
- Cmax ([2]; Table 3, Sofusa): 23 µg/mL
- Tmax ([2]; Table 3, Sofusa): 12 h
- AUC0-36 ([2]; Table 3, Subcutaneous): 302 µg·h/mL
- BA ([2]; Table 3, Subcutaneous): 11%
- Cmax ([2]; Table 3, Subcutaneous): 15 µg/mL
- Tmax ([2]; Table 3, Subcutaneous): 36 h
- joint swelling over time ([3]; CIA RA rat model, Sofusa administration, 1 mg): decreased joint swelling over time
- increase in swelling with progression of disease (paired group comparisons, ANOVA) ([3]; CIA rat, ID administration): swelling was significantly increased
- increase in swelling with progression of disease (paired group comparisons, ANOVA) ([3]; CIA rat, SC administration): swelling was significantly increased
- increase in swelling with progression of disease (paired group comparisons, ANOVA) ([3]; CIA rat, SOFUSA administration): no statistically significant increase in swelling
- swelling of the hind limbs vs untreated animals ([3]; CIA rat, all treated groups (SC, ID, Sofusa), days 13 and 18): significant reduction in swelling
- hind limb swelling, SOFUSA compared to SC-treated animals ([3]; CIA rat, days 13 and 18): significantly reduced hind limb swelling
- AUC48 and bioavailability, Sofusa vs intravenous [4]: comparable to that for intravenous administration
- AUC48 and bioavailability, Sofusa vs subcutaneous [4]: significantly higher than that for subcutaneous delivery
- serum concentration ([4]; Sofusa at a dose much lower than subcutaneous administration): maintained a serum concentration at a therapeutically effective concentration
- AUC0-48 ([4]; Table 4, IV): 143 hrs-μg/mL
- BA ([4]; Table 4, IV): 100%
- Cmax ([4]; Table 4, IV): 6 µg/mL
- Tmax ([4]; Table 4, IV): 2 h
- AUC0-48 ([4]; Table 4, SC): 89 hrs-μg/mL
- BA ([4]; Table 4, SC): 62%
- Cmax ([4]; Table 4, SC): 2 µg/mL
- Tmax ([4]; Table 4, SC): 24 h
- AUC0-48 ([4]; Table 4, Sofusa): 132 hrs-μg/mL
- BA ([4]; Table 4, Sofusa): 93%
- Cmax ([4]; Table 4, Sofusa): 4.4 µg/mL
- Tmax ([4]; Table 4, Sofusa): 24 h
- active agent in the axillary and inguinal lymph nodes [5]: significantly more of the active agent
